These results are taken from paper PMC2440601.

Substrate in series [1]: CC=O
Description: purified protein. The format is biochemical, Homo sapiens. To be noted: NAD+.

Substrate in series [2]: CC(=O)Oc1ccc([N+](=O)[O-])cc1
The series is described as follows: purified protein.

B1: ALDH2 (mitochondrial aldehyde dehydrogenase) (Homo sapiens) (protein)
chain: SAAATQAVPAPNQQPEVFCNQIFINNEWHDAVSRKTFPTVNPSTGEVICQVAEGDKEDVDKAVKAARAAFQLGSPWRRMDASHRGRLLNRLADLIERDRTYLAALETLDNGKPYVISYLVDLDMVLKCLRYYAGWADKYHGKTIPIDGDFFSYTRHEPVGVCGQIIPWNFPLLMQAWKLGPALATGNVVVMKVAEQTPLTALYVANLIKEAGFPPGVVNIVPGFGPTAGAAIASHEDVDKVAFTGSTEIGRVIQVAAGSSNLKRVTLELGGKSPNIIMSDADMDWAVEQAHFALFFNQGQCCCAGSRTFVQEDIYDEFVERSVARAKSRVVGNPFDSKTEQGPQVDETQFKKILGYINTGKQEGAKLLCGGGIAADRGYFIQPTVFGDVQDGMTIAKEEIFGPVMQILKFKTIEEVVGRANNSTYGLAAAVFTKDLDKANYLSQALQAGTVWVNCYDVFGAQSPFGGYKMSGSGRELGEYGLQAYTEVKTVTVKVPQKNS
Regarding B1, in series [1], the Michaelis-Menten constant (Km) (in general, the concentration of substrate that gives half-maximal velocity) was found to be 0.33 ± 0.005 µM and the Vmax (usually the top rate of the reaction or transport when substrate is in excess) was 4 ± 0.03 µmol/min/mg. In addition, in series [2], the Km stood at 0.18 ± 0.01 µM and the Vmax was 0.21 µmol/min/mg.

B2: ALDH1 (cytosolic aldehyde dehydrogenase, ALDH1A1) (Homo sapiens) (protein)
chain: SSSGTPDLPVLLTDLKIQYTKIFINNEWHDSVSGKKFPVFNPATEEELCQVEEGDKEDVDKAVKAARQAFQIGSPWRTMDASERGRLLYKLADLIERDRLLLATMESMNGGKLYSNAYLNDLAGCIKTLRYCAGWADKIQGRTIPIDGNFFTYTRHEPIGVCGQIIPWNFPLVMLIWKIGPALSCGNTVVVKPAEQTPLTALHVASLIKEAGFPPGVVNIVPGYGPTAGAAISSHMDIDKVAFTGSTEVGKLIKEAAGKSNLKRVTLELGGKSPCIVLADADLDNAVEFAHHGVFYHQGQCCIAASRIFVEESIYDEFVRRSVERAKKYILGNPLTPGVTQGPQIDKEQYDKILDLIESGKKEGAKLECGGGPWGNKGYFVQPTVFSNVTDEMRIAKEEIFGPVQQIMKFKSLDDVIKRANNTFYGLSAGVFTKDIDKAITISSALQAGTVWVNCYGVVSAQCPFGGFKMSGNGRELGEYGFHEYTEVKTVTVKISQKNS
With B2, the Michaelis constant (Km) in series [1] stood at 200 ± 14 µM; in series [2], 0.69 ± 0.03 µM. Moreover, the Vmax came out at 1.06 ± 0.02 µmol/min/mg in series [1] and 0.155 µmol/min/mg in series [2].
